In IntAct's records for PubMed 22981988:

B1: Arfaptin-1 (Homo sapiens), P53367 (parent)
chain: MAQESPKNSAAEIPVTSNGEVDDSREHSFNRDLKHSLPSGLGLSETQITSHGFDNTKEGVIEAGAFQGSPAPPLPSVMSPSRVAASRLAQQGSDLIVPAGGQRTQTKSGPVILADEIKNPAMEKLELVRKWSLNTYKCTRQIISEKLGRGSRTVDLELEAQIDILRDNKKKYENILKLAQTLSTQLFQMVHTQRQLGDAFADLSLKSLELHEEFGYNADTQKLLAKNGETLLGAINFFIASVNTLVNKTIEDTLMTVKQYESARIEYDAYRTDLEELNLGPRDANTLPKIEQSQHLFQAHKEKYDKMRNDVSVKLKFLEENKVKVLHNQLVLFHNAIAAYFAGNQKQLEQTLKQFHIKLKTPGVDAPSWLEEQ
partner: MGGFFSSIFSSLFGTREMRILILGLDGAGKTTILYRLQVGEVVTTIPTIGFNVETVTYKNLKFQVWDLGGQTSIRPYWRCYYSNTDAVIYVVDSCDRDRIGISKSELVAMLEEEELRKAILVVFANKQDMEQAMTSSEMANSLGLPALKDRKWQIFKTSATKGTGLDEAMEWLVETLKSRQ
B2: Arfaptin-1 (Homo sapiens), P53367 (parent)
chain: B1 chain

Variants of: B1
Conditions: with arl1_human ARL1, P40616

| Variant | effect of a mutation on the interaction |
| --- | --- |
| MAQESPKNSAAEIPVTSNGEVDDSREHSFNRDLKHSLPSGLGLSETQITSHGFDNTKEGVIEAGAFQGSPAPPLPSVMSPSRVAASRLAQQGSDLIVPAGGQRTQTKSGPVILADEIKNPAMEKLELVRKWDLNTYKCTRQIISEKLGRGSRTVDLELEAQIDILRDNKKKYENILKLAQTLSTQLFQMVHTQRQLGDAFADLSLKSLELHEEFGYNADTQKLLAKNGETLLGAINFFIASVNTLVNKTIEDTLMTVKQYESARIEYDAYRTDLEELNLGPRDANTLPKIEQSQHLFQAHKEKYDKMRNDVSVKLKFLEENKVKVLHNQLVLFHNAIAAYFAGNQKQLEQTLKQFHIKLKTPGVDAPSWLEEQ [S132D] | disrupting interaction strength |
| MAQESPKNSAAEIPVTSNGEVDDSREHSFNRDLKHSLPSGLGLSETQITSHGFDNTKEGVIEAGAFQGSPAPPLPSVMSPSRVAASRLAQQGSDLIVPAGGQRTQTKSGPVILADEIKNPAMEKLELVRKWALNTYKCTRQIISEKLGRGSRTVDLELEAQIDILRDNKKKYENILKLAQTLSTQLFQMVHTQRQLGDAFADLSLKSLELHEEFGYNADTQKLLAKNGETLLGAINFFIASVNTLVNKTIEDTLMTVKQYESARIEYDAYRTDLEELNLGPRDANTLPKIEQSQHLFQAHKEKYDKMRNDVSVKLKFLEENKVKVLHNQLVLFHNAIAAYFAGNQKQLEQTLKQFHIKLKTPGVDAPSWLEEQ [S132A] | with no effect |

Variants of: B2
Conditions: with arf1_human ARF1, P84077
Sequence of arf1_human ARF1, P84077 (P84077 whole entry): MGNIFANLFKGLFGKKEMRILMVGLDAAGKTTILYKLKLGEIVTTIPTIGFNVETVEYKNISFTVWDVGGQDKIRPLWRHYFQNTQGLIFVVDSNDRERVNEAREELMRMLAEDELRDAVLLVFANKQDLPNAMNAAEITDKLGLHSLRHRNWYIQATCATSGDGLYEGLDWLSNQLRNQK

| Variant | effect of a mutation on the interaction |
| --- | --- |
| MAQESPKNSAAEIPVTSNGEVDDSREHSFNRDLKHSLPSGLGLSETQITSHGFDNTKEGVIEAGAFQGSPAPPLPSVMSPSRVAASRLAQQGSDLIVPAGGQRTQTKSGPVILADEIKNPAMEKLELVRKWALNTYKCTRQIISEKLGRGSRTVDLELEAQIDILRDNKKKYENILKLAQTLSTQLFQMVHTQRQLGDAFADLSLKSLELHEEFGYNADTQKLLAKNGETLLGAINFFIASVNTLVNKTIEDTLMTVKQYESARIEYDAYRTDLEELNLGPRDANTLPKIEQSQHLFQAHKEKYDKMRNDVSVKLKFLEENKVKVLHNQLVLFHNAIAAYFAGNQKQLEQTLKQFHIKLKTPGVDAPSWLEEQ [S132A] | with no effect |

Variants of: B2
Conditions: with arf3_human ARF3, P61204
Sequence of arf3_human ARF3, P61204 (P61204 whole entry): as the sequence (P84077 whole entry) above, with A6G, F9L, G11S, F13I, S174A, R178K, Q180K counted along it

| Variant | effect of a mutation on the interaction |
| --- | --- |
| MAQESPKNSAAEIPVTSNGEVDDSREHSFNRDLKHSLPSGLGLSETQITSHGFDNTKEGVIEAGAFQGSPAPPLPSVMSPSRVAASRLAQQGSDLIVPAGGQRTQTKSGPVILADEIKNPAMEKLELVRKWALNTYKCTRQIISEKLGRGSRTVDLELEAQIDILRDNKKKYENILKLAQTLSTQLFQMVHTQRQLGDAFADLSLKSLELHEEFGYNADTQKLLAKNGETLLGAINFFIASVNTLVNKTIEDTLMTVKQYESARIEYDAYRTDLEELNLGPRDANTLPKIEQSQHLFQAHKEKYDKMRNDVSVKLKFLEENKVKVLHNQLVLFHNAIAAYFAGNQKQLEQTLKQFHIKLKTPGVDAPSWLEEQ [S132A] | with no effect |
| MAQESPKNSAAEIPVTSNGEVDDSREHSFNRDLKHSLPSGLGLSETQITSHGFDNTKEGVIEAGAFQGSPAPPLPSVMSPSRVAASRLAQQGSDLIVPAGGQRTQTKSGPVILADEIKNPAMEKLELVRKWDLNTYKCTRQIISEKLGRGSRTVDLELEAQIDILRDNKKKYENILKLAQTLSTQLFQMVHTQRQLGDAFADLSLKSLELHEEFGYNADTQKLLAKNGETLLGAINFFIASVNTLVNKTIEDTLMTVKQYESARIEYDAYRTDLEELNLGPRDANTLPKIEQSQHLFQAHKEKYDKMRNDVSVKLKFLEENKVKVLHNQLVLFHNAIAAYFAGNQKQLEQTLKQFHIKLKTPGVDAPSWLEEQ [S132D] | disrupting interaction strength |

Variants of: B2
Conditions: with arf1_human ARF1, P84077
Remark: another data set of the same source

| Variant | effect of a mutation on the interaction |
| --- | --- |
| MAQESPKNSAAEIPVTSNGEVDDSREHSFNRDLKHSLPSGLGLSETQITSHGFDNTKEGVIEAGAFQGSPAPPLPSVMSPSRVAASRLAQQGSDLIVPAGGQRTQTKSGPVILADEIKNPAMEKLELVRKWDLNTYKCTRQIISEKLGRGSRTVDLELEAQIDILRDNKKKYENILKLAQTLSTQLFQMVHTQRQLGDAFADLSLKSLELHEEFGYNADTQKLLAKNGETLLGAINFFIASVNTLVNKTIEDTLMTVKQYESARIEYDAYRTDLEELNLGPRDANTLPKIEQSQHLFQAHKEKYDKMRNDVSVKLKFLEENKVKVLHNQLVLFHNAIAAYFAGNQKQLEQTLKQFHIKLKTPGVDAPSWLEEQ [S132D] | disrupting interaction strength |
